Experimental findings from publication PMC11528890 are described below.

Where “and” joins values, the source holds several entries; their conditions need not be identical. Identical values can stand only once.

The test deals with nitrogenase MoFe-protein (Azotobacter vinelandii) (UniProt P07328). The test can be described thus: cryo-EM structure; single particle cryoEM of the ADP-AlF4- stabilized complex of the two nitrogenase proteins; grids prepared anaerobically in the vinyl tent; carbon-layered grids.
Chain of UniProt P07328 (P07328 whole entry, chain 1 of 2): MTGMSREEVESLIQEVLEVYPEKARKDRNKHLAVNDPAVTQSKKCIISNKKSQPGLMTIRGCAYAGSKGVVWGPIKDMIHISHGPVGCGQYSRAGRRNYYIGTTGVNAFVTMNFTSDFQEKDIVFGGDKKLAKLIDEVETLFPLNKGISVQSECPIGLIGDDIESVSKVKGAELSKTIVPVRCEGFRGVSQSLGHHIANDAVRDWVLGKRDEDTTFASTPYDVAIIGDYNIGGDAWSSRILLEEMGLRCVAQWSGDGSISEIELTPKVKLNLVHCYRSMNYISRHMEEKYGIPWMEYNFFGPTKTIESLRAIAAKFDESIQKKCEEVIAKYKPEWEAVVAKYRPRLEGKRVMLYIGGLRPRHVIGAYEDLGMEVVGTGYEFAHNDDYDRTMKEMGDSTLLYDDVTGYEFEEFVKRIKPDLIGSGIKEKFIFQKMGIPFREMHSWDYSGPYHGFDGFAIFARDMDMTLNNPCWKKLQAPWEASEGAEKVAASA
Chain of UniProt P07328 (P07329 whole entry, chain 2 of 2, further chain): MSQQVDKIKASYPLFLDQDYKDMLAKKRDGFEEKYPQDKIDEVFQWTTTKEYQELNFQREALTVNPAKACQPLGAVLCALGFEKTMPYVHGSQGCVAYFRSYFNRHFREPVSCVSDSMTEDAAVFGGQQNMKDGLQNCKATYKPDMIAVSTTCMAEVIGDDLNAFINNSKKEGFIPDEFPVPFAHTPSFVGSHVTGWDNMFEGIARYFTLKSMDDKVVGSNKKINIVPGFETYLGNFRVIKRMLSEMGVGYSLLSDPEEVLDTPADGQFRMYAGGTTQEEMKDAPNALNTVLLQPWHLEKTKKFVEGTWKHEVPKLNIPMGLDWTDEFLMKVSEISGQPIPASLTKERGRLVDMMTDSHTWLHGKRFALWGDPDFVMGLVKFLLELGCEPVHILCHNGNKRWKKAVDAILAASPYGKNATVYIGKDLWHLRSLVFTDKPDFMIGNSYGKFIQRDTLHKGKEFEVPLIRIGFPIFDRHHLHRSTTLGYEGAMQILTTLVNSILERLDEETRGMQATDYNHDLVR

As for nitrogenase Fe-protein (enzyme), the stoichiometry N (Fe-protein:MoFe-protein) was 2 and 1.
